# From US10738340B2, “Methods and materials for enzymatic synthesis of mogroside compounds” (EVOLVA SA, priority 2011, dated 2020)
# Assay: In vitro UGT screening: reactions of mogrol with a panel of 230 UGT enzymes, products analyzed with LC-MS
# Type: biochemical
# Conditions: for position of mogrol glycosylated by the UGT: aglycone mogrol as substrate, see FIG. 2; for product formed from mogrol substrate in the in vitro UGT reaction (LC-MS): partially purified UGT enzyme or crude enzyme extract
# Procedure: In vitro reactions of mogrol with a panel of 230 UGT enzymes were performed and the products were analyzed with LC-MS. The in vitro UGT reaction mixtures included 4× Tris buffer, mogrol (250 μM), UDP-glucose (750 μM) and 1% alkaline phosphatase. Five μl of each partially purified UGT enzyme or crude enzyme extract was added to the reaction, and the reaction volume brought to 50 μl with water. The reactions were incubated overnight at 30° C. and performed in sterilized 96 well plates. After the incubation, 25 μL of DMSO were added into each reaction and the reaction plates were centrifuged for 5 min. Forty μL samples were taken from each well and filtered, and were used for LC-MS analysis.
# [1] = mogrol 250 μM, UDP-glucose 750 μM, overnight at 30° C.
Molecule,position of mogrol glycosylated by the UGT,completeness of the mogrol glycosylation reaction [1],product formed from mogrol substrate in the in vitro UGT reaction (LC-MS) [1]
"UGT 73E1: UDP dependent glucosyltransferase from Stevia rebaudiana, glycosyltransferase family I, SEQ ID NO:4 (protein, listed as Stevia rebaudiana) MSPKMVAPPTNLHFVLFPLMAQGHLVPMVDIARILAQRGATVTIITTPYHANRVRPVISRAIATNLKIQLLELQLRSTEAGLPEGCESFDQLPSFEYWKNISTAIDLLQQPAEDLLRELSPPPDCIISDFLFPWTTDVARRLNIPRLVFNGPGCFYLLCIHVAITSNILGENEPVSSNTERVVLPGLPDRIEVTKLQIVGSSRPANVDEMGSWLRAVEAEKASFGIVVNTFEELEPEYVEEYKTVKDKKMWCIGPVSLCNKTGPDLAERGNKAAITEHNCLKWLDERKLGSVLYVCLGSLARISAAQAIELGLGLESINRPFIWCVRNETDELKTWFLDGFEERVRDRGLIVHGWAPQVLILSHPTIGGFLTHCGWNSTIESITAGVPMITWPFFADQFLNEAFIVEVLKIGVRIGVERACLFGEEDKVGVLVKKEDVKKAVECLMDEDEDGDQRRKRVIELAKMAKIAMAEGGSSYENVSSLIRDVTETVRAPH",glycosylate at the C24-OH position,the reaction was not complete,"mogroside Ib was found as the major product, together with a new glycosylated mogrol"
"UGT 73C6: UDP dependent glucosyltransferase from Arabidopsis thaliana, glycosyltransferase family I, SEQ ID NO:3 (protein, listed as Arabidopsis thaliana) MAFEKNNEPFPLHFVLFPFMAQGHMIPMVDIARLLAQRGVLITIVTTPHNAARFKNVLNRAIESGLPINLVQVKFPYQEAGLQEGQENMDLLTTMEQITSFFKAVNLLKEPVQNLIEEMSPRPSCLISDMCLSYTSEIAKKFKIPKILFHGMGCFCLLCVNVLRKNREILDNLKSDKEYFIVPYFPDRVEFTRPQVPVETYVPAGWKEILEDMVEADKTSYGVIVNSFQELEPAYAKDFKEARSGKAWTIGPVSLCNKVGVDKAERGNKSDIDQDECLEWLDSKEPGSVLYVCLGSICNLPLSQLLELGLGLEESQRPFIWVIRGWEKYKELVEWFSESGFEDRIQDRGLLIKGWSPQMLILSHPSVGGFLTHCGWNSTLEGITAGLPMLTWPLFADQFCNEKLVVQILKVGVSAEVKEVMKWGEEEKIGVLVDKEGVKKAVEELMGESDDAKERRRRAKELGESAHKAVEEGGSSHSNITFLLQDIMQLAQSNN",glycosylate at the C24-OH position,–,convert all the mogrol substrate to mogroside Ib
"UGT 73C5: UDP dependent glucosyltransferase from Arabidopsis thaliana, glycosyltransferase family I, SEQ ID NO:2 (protein, listed as Arabidopsis thaliana) MVSETTKSSPLHFVLFPFMAQGHMIPMVDIARLLAQRGVIITIVTTPHNAARFKNVLNRAIESGLPINLVQVKFPYLEAGLQEGQENIDSLDTMERMIPFFKAVNFLEEPVQKLIEEMNPRPSCLISDFCLPYTSKIAKKFNIPKILFHGMGCFCLLCMHVLRKNREILDNLKSDKELFTVPDFPDRVEFTRTQVPVETYVPAGDWKDIFDGMVEANETSYGVIVNSFQELEPAYAKDYKEVRSGKAWTIGPVSLCNKVGADKAERGNKSDIDQDECLKWLDSKKHGSVLYVCLGSICNLPLSQLKELGLGLEESQRPFIWVIRGWEKYKELVEWFSESGFEDRIQDRGLLIKGWSPQMLILSHPSVGGFLTHCGWNSTLEGITAGLPLLTWPLFADQFCNEKLVVEVLKAGVRSGVEQPMKWGEEEKIGVLVDKEGVKKAVEELMGESDDAKERRRRAKELGDSAHKAVEEGGSSHSNISFLLQDIMELAEPNN",glycosylates at both the C3-OH (UGT #1 in FIG. 2) and C24-OH position,–,makes both mogroside Ia and Ib
"UGT 73C3: UDP dependent glucosyltransferase from Arabidopsis thaliana, glycosyltransferase family I, SEQ ID NO:1 (protein, listed as Arabidopsis thaliana) MATEKTHQFHPSLHFVLFPFMAQGHMIPMIDIARLLAQRGVTITIVTTPHNAARFKNVLNRAIESGLAINILHVKFPYQEFGLPEGKENIDSLDSTELMVPFFKAVNLLEDPVMKLMEEMKPRPSCLISDWCLPYTSIIAKNFNIPKIVFHGMGCFNLLCMHVLRRNLEILENVKSDEEYFLVPSFPDRVEFTKLQLPVKANASGDWKEIMDEMVKAEYTSYGVIVNTFQELEPPYVKDYKEAMDGKVWSIGPVSLCNKAGADKAERGSKAAIDQDECLQWLDSKEEGSVLYVCLGSICNLPLSQLKELGLGLEESRRSFIWVIRGSEKYKELFEWMLESGFEERIKERGLLIKGWAPQVLILSHPSVGGFLTHCGWNSTLEGITSGIPLITWPLFGDQFCNQKLVVQVLKAGVSAGVEEVMKWGEEDKIGVLVDKEGVKKAVEELMGDSDDAKERRRRVKELGELAHKAVEKGGSSHSNITLLLQDIMQLAQFKN",glycosylate at the C24-OH position,–,convert all the mogrol substrate to mogroside Ib
"UGT 85C2: UDP dependent glucosyltransferase from Stevia rebaudiana, glycosyltransferase family I, SEQ ID NO:5 (protein, listed as Stevia rebaudiana) MDAMATTEKKPHVIFIPFPAQSHIKAMLKLAQLLHHKGLQITFVNTDFIHNQFLESSGPHCLDGAPGFRFETIPDGVSHSPEASIPIRESLLRSIETNFLDRFIDLVTKLPDPPTCIISDGFLSVFTIDAAKKLGIPVMMYWTLAACGFMGFYHIHSLIEKGFAPLKDASYLTNGYLDTVIDWVPGMEGIRLKDFPLDWSTDLNDKVLMFTTEAPQRSHKVSHHIFHTFDELEPSIIKTLSLRYNHIYTIGPLQLLLDQIPEEKKQTGITSLHGYSLVKEEPECFQWLQSKEPNSVVYVNFGSTTVMSLEDMTEFGWGLANSNHYFLWIIRSNLVIGENAVLPPELEEHIKKRGFIASWCSQEKVLKHPSVGGFLTHCGWGSTIESLSAGVPMICWPYSWDQLTNCRYICKEWEVGLEMGTKVKRDEVKRLVQELMGEGGHKMRNKAKDWKEKARIAIAPNGSSSLNIDKMVKEITVLARN",glycosylate at the C24-OH position,–,convert all the mogrol substrate to mogroside Ib
